In patent US20100285022A1 (TRELLIS RSV, published 2010):

T1: RSV G protein of strain A (Ga protein) (respiratory syncytial virus, strain A …, UniProt P03423 66-298)
T1 construct: also called RSV-Ga; RSV-GA2 protein
T1 sequence (looked up): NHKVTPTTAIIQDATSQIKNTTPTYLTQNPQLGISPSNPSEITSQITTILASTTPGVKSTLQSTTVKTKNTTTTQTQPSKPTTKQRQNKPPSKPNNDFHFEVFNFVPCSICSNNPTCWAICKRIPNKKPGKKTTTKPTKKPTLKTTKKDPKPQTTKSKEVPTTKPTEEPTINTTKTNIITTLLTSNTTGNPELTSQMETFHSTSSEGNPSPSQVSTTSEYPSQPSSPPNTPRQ

T2: Ga derived 12-mer peptide SKPNNDFHFEVF (SEQ ID NO:8) (respiratory syncytial virus, strain A …)
T2 construct: Peptide on an array of overlapping 12-mers
T2 peptide: SKPNNDFHFEVF

B1: murine monoclonal antibody 131-2G (antibody, V domains shown)
VH: EVQLQQSGPELVKPGTSVKISCKASGYSFTGFTMNWVKQSHGKNLEWFGLINPFNGNTGYNQKFKGKATLTVDKSSSTAFMELLSLTSEDSAVYYCARSGKSYDYEAWFTYWGQGTLVTVSA
VL: DIVMTQTTLSLPVSLGNQASISCRSSQTIVHTNGNTYLEWYLQKPGQSPKLLIYKVSNRFSGVPDRFSGSGSGTDFILNISRVEAEDLGVYYCFQGSHVPFTFGSGTKLEIKR
notes: also called mAb 1312G
B2: human monoclonal antibody 3D3 (antibody, V domains shown)
VH: EEQLVESGGGLVQPGRSLRLSCVGSGLRFEEHAMHWVRQAPGRGLEWVSGISWNSGSVGYADSVKGRFTTSRDNAKDILFLEMNTLRSEDTALYFCAIMVATTKNDFHYYKDVWGKGTTVTVSS
VL: QIVLTQSPATLSLSPGERATLSCKASQSVSNHLAWYQQKPGQAPRLLIYETSNRATGIPPRFSGSGSGTDFTLTISSLEPEDFAVYYCQQRNNWYTFGQGTKLEIK
B3: human monoclonal antibody 1G8 (antibody, V domains shown)
VH: QLQLQESGPGLVKPSETLSLTCTVSGDSITSGQYYWAWIRQAPGKGLEWIGSIHYSGSTYQNPSLKSRLTISVDTSRDQISMKLSSVTVAESAVYYCAKQQLSLSPVENWFDPWGQGTLVTVSS
VL: EIVVTQSPVTLSVSPGESAALSCRASRSVGSRLAWYQQKPGQPPRLLIFAASTRATGIPARFSGSGSGTDFTLIISGLQSEDYAVYYCQQYKEWPLFTFGPGTTVDSK
B4: human monoclonal antibody 3G12 (antibody, V domains shown)
VH: QLQLQESGPGLVKPSETLSLTCTVSGGSISSSNYYWGWIRQPPGKGLEWIASIHDSGSIYYNPSLRSRVTISVDTSKNQFSLKLSSVTAADTAVYYCARHLVWFGELRNNWFDPWGQGTLVTVAS
VL: EIVMTQSPATLSVSPGERATLSCRASQSVNSNLAWYQHKPGQAPRLLIYGASTRATGIPARFSGSGSGTDFTLTISSLQSEDFAVYYCQQYNNWPLFGPGTKVDLK
B5: human monoclonal antibody 5D8 (antibody, V domains shown)
VH: QAQLVESGGGVVQPGRSLRLSCAASGFTFSYSGMHWVRQAPGRGLEWLAVISYDGNKMYYADSVKGRFTISRDNSKMTLYLQMNSLRREDTAVYYCAKDGLDYGGDLVYYGMDVWGNGTTVTVSS
VL: SYELTQPPSVSVSPGQTGRITCTGSEASGDALASRYAYWYQHKSGQAPVVLIYKDTERPSGISERFSGSSSGTTVTLIISGVLAEDEADYYCKTSVRNGTSWVFGTGTMLTVL
B6: human monoclonal antibody 1D4 (antibody, V domains shown)
VH: QVQLLQSGAELKKPGASVKVSCQASIDTFSTYYIHWVRQAPGQGLEWLGVINPSGGSTTYAQKFQDRITLTTDTSTRTVYMDLSSLRSEDTAVYYCARVHKGRAEQWQLLHGHFDLWGRGSLVTVSS
VL: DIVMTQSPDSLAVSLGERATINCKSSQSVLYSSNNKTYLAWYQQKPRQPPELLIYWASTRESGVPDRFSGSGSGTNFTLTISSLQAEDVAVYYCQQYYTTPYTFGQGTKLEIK

Assays:
[1] = target: T1, RSV G protein of strain A (Ga protein); assay: Biacore, ratio of on-rate to off-rate; Biacore, not the ELISA midpoint (4 nM)
[2] = target: T2, Ga derived 12-mer peptide SKPNNDFHFEVF …; assay: peptide array of overlapping 12-mer Ga peptides probed with 131-2G at 1 ug/ml, chemiluminescence
[3] = target: T1, RSV G protein of strain A (Ga protein); assay: Biacore, antibody on chip, recombinant Ga in flow
[4] = target: T3, G protein on live RSV virus coated on the plate (strain not stated) (respiratory syncytial virus); assay: ELISA on live RSV virus coated on the plate, anti-human Fc-HRP detection
T3 construct: whole, on cells; also called live virus; virus particles

[5] = target: T4, RSV G protein of strain B (Gb protein) (respiratory syncytial virus, strain B); assay: Biacore, antibody on chip, recombinant Gb in flow
T4 construct: also called RSV-Gb; G protein from strain B

| Binder | Kd [3] [nM] | EC50 (read off the curve) [4] [µg/mL] | other results |
| --- | --- | --- | --- |
| B1 |  |  | Kd [1]: 7 nM; binding result [2]: binds |
| B2 | 0.0011 | ~0.1 |  |
| B3 | 0.024 | ~0.3 |  |
| B4 | 0.579 |  |  |
| B5 | 4.39 |  |  |
| B6 | 0.23 |  | Kd [5]: 0.052 nM |
